In assay [1] the target is T1, human MET on cells (human, UniProt P08581 25-1390). The assay is described as follows: cell-based or functional assay.
Assay [2] concerns the target T2, human MET (exon14 skip mutation) on NCI-H596 cells (human, UniProt P08581 25-1390). The assay is described as follows: cell-based or functional assay.
The target of assay [3] is T1, human MET on cells. The assay is described as follows: cell-based or functional assay. The source holds these as a separate data set.
Assay [4] has as its target T2, human MET (exon14 skip mutation) on …. The assay is described as follows: cell-based or functional assay. This is another data set of the same source.
Assay [5] deals with T1, human MET on cells. The assay is described as follows: cell-based or functional assay. This is another data set of the same source.
The target of assay [6] is T1, human MET on cells. The assay is described as follows: cell-based or functional assay. This is another data set of the same source.
Assay [7] addresses T1, human MET on cells. The assay is described as follows: flow cytometry, 10 µg/ml antibody on EBC-1 cells, Alexa647 anti-human secondary. The method, then:
(§1) After one additional wash with FACS buffer, samples were fixed with Cytofix (BD Biosciences, #554655), filtered with FACS buffer and run on an iQue flow cytometer (Intelicyte). Mean fluorescence intensity (MFI) data was determined using FlowJo software (FlowJo LLC).
On the technique in general: A flow cytometer gives signals particle by particle.

Assay [8] concerns the target T1, human MET on cells. The experiment in a line: flow cytometry, 10 µg/ml antibody on SNU-5 cells, Alexa647 anti-human secondary. The method, then: as §1
Assay [9] addresses T1, human MET on cells. The experiment in a line: flow cytometry, 10 µg/ml antibody on A549 cells, Alexa647 anti-human secondary. The method, then:
as §1

The target in assay [10] is T1, human MET on cells. The assay is described as follows: cell-based or functional assay. The source holds these as a separate data set.
In assay [11] the target is T1, human MET on cells. The experiment in a line: cell-based or functional assay. The source holds these as a separate data set.
In assay [12] the target is T1, human MET on cells. The assay is described as follows: flow cytometry, 10 µg/ml antibody on MKN-45 cells, Alexa647 anti-human secondary. The method, then:
as §1

Assay [13] deals with T1, human MET on cells. The experiment in a line: flow cytometry, 10 µg/ml antibody on U87MG cells, Alexa647 anti-human secondary. The method, then:
as §1

Assay [14] has as its target T1, human MET on cells. The assay is described as follows: flow cytometry, 10 µg/ml antibody on Hs746t cells, Alexa647 anti-human secondary. The method, then:
as §1

For assay [15], the target named is T1, human MET on cells. The assay is described as follows: flow cytometry, 10 µg/ml antibody on MDA-MB-231 cells, Alexa647 anti-human secondary. The method, then:
as §1

Assay [16] addresses T3, hMet.mmh (human MET extracellular domain with C-terminal myc-myc-hexahistidine tag) (human, UniProt P08581 309-914; P08581 27-307).
T3 construct: soluble monomeric MET; also called monomeric human MET
The experiment in a line: SPR 37C, antibody captured. The method, then: (§2) The anti-Met antibodies tested in this example were bivalent monospecific binders of MET.
(§3) Kinetic association (kₐ) and dissociation (kd) rate constants were determined by fitting the real-time sensorgrams to a 1:1 binding model using Scrubber 2.0c curve fitting software. Binding dissociation equilibrium constant (KD) and dissociative half-life (t1/2) were calculated from the kinetic rate constants as: […]

The target in assay [17] is T4, hMET.mFc (dimeric human MET) (human, UniProt P08581 27-307).
T4 construct: soluble dimeric MET protein
The experiment in a line: SPR 37C, antibody captured. The method, then:
as §2, §3

In assay [18] the target is T5, MET (c-Met, hepatocyte growth factor receptor) on cells (human, UniProt P08581 25-1390). The experiment in a line: cell-based or functional assay.
T5 sequence (P08581 25-1390 limits assumed, form in doubt): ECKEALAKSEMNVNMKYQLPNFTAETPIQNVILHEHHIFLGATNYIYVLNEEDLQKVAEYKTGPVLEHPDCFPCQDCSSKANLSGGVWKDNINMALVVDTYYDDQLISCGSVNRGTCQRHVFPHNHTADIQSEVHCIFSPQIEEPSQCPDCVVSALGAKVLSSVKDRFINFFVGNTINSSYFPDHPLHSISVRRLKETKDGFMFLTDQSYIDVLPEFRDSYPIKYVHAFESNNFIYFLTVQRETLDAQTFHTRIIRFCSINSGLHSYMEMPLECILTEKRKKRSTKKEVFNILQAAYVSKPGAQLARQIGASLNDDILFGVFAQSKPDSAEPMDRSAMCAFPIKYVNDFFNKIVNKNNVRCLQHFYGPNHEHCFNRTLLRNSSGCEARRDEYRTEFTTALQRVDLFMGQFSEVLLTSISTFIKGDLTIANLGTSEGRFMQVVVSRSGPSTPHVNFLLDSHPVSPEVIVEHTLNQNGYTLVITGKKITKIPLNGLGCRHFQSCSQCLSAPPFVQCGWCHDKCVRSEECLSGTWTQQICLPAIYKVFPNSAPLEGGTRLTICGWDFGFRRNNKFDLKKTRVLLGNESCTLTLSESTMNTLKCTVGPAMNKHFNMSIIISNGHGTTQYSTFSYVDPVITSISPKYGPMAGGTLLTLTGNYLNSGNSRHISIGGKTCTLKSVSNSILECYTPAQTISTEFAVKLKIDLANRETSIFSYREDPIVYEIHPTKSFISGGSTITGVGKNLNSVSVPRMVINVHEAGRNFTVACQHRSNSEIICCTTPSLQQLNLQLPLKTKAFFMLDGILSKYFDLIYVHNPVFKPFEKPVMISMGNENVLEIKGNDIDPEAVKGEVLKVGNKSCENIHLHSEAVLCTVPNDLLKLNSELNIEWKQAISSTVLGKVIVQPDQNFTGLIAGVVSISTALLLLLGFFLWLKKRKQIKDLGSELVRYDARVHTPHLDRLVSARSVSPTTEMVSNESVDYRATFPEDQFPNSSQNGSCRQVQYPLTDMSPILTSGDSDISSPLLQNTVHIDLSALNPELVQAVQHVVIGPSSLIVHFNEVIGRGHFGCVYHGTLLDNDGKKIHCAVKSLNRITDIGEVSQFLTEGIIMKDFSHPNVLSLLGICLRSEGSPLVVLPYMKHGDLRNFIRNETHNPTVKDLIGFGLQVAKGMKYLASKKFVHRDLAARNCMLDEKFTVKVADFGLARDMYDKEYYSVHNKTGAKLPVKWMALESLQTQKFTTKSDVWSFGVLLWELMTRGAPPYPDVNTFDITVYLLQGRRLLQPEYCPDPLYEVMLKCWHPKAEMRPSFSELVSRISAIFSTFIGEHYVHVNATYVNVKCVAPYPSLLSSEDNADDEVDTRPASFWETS
Assay [19] deals with T5, MET (c-Met, hepatocyte growth factor …). The experiment in a line: cell-based or functional assay. This is another data set of the same source.
Assay [20] concerns the target T3, hMet.mmh (human MET extracellular …). The assay is described as follows: SPR 37C, antibody captured. The method, then:
Kinetic association (kₐ) and dissociation (kd) rate constants were determined as described in Example 3.
The source holds these as a separate data set.

Read-outs that look alike come from different tables or passages of the source.

T3 sequence (P08581 other isoform, or with tags, fused parts or gaps limits assumed, chain 1 of 2): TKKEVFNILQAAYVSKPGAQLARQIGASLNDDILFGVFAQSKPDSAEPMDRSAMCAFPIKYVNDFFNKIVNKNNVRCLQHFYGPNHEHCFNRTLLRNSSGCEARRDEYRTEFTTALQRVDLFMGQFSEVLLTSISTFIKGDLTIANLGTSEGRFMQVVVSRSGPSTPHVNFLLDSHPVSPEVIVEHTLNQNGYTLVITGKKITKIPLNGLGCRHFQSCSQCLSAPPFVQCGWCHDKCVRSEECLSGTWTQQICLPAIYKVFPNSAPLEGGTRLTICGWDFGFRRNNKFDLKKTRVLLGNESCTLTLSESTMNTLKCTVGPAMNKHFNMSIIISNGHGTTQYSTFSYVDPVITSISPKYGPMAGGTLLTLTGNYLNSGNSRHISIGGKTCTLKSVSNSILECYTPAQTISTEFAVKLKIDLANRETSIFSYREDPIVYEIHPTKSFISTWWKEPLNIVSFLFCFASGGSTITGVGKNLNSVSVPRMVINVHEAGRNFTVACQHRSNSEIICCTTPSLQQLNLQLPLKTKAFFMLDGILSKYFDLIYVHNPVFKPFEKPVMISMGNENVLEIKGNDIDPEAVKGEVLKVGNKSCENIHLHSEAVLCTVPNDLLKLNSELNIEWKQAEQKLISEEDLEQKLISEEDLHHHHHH
T3 sequence (P08581 27-307 limits assumed, chain 2 of 2): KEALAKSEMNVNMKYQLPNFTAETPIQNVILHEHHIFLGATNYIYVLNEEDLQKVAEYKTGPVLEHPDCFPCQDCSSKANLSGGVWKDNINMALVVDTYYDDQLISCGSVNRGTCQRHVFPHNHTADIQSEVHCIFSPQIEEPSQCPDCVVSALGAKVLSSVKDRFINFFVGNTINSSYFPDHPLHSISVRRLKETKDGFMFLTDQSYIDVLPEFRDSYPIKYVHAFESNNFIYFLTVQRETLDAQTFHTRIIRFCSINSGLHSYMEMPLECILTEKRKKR
T1 sequence (P08581 25-1390 limits assumed, form in doubt): as the sequence (P08581 25-1390 limits assumed, form in doubt) above
T2 sequence (P08581 25-1390, change not shown): as the sequence (P08581 25-1390 limits assumed, form in doubt) above

B1: H4H14639D (bispecific antibody, human IgG4, V domains shown)
VH 1: EVQLVESGGGLVQPGTSLRLSCAASGFTFDDYAMHWVRQAPGKGLEWVSGITWNSYNIDYADSVKGRFTISRDNAKNSLYLQMNSLRAEDTALYYCAKDDDYSNYVYFDYWGQGTLVTVSS
VH 2: EVQLVESGGGLVQPGGSLRLSCAASGFIVTTNYMTWLRQAPGKGLEWVSLIYSSGHTYYADSVKGRFTISRHNSKNTLYLQMDSLRAEDTAVYYCASAFAADVFDIWGQGTMVTVSS
VL: not shown
notes: MET x MET bispecific, human IgG4; also called No. 122; MET×MET bispecific antibody
On to B1, for which the “Relative Cell Growth (n = 3), SNU5 cells, 5 µg/ml, 5 days” value with human MET on cells [1] was 0.271 normalized to control. For the same molecule, the “Relative Cell Growth (n = 3), NCI-H596 cells in soft agar, 5 µg/ml, two weeks” value in assay [2] was 1.07 normalized to control. Moreover, in the assay with human MET on cells [3], the “Relative Cell Growth (n = 3), Hs746T cells, 5 µg/ml, 5 days” value is 0.647 normalized to control. Further, in assay [4], the “Relative MET Level, NCI-H596 cells, 18 h” value was 0.24 relative to control (hFc). Also, in the assay with human MET on cells [5], the “IC50, 6-day in vitro cytotoxicity, A549” value is 0.17 nM; the “IC50, 6-day in vitro cytotoxicity, EBC-1” value was 0.37 nM; the “IC50, 6-day in vitro cytotoxicity, Hs746t” value is 0.44 nM; the “Max % Kill, 6-day in vitro cytotoxicity, A549” value was determined as 29%. Moreover, in the assay with human MET on cells [5], the “Max % Kill, 6-day in vitro cytotoxicity, EBC-1” value amounted to 66% and the “Max % Kill, 6-day in vitro cytotoxicity, Hs746t” value turned out to be 35%. In the assay with human MET on cells [6], the “Relative Cell Growth (n = 3), EBC-1 cells, 0.1 µg/mL H4H14639D” value was 0.397 relative to control and the “Relative Cell Growth (n = 3), EBC-1 cells, 1 µg/mL H4H14639D” value is 0.462 relative to control.

B2: H4H14635D (bispecific antibody, human IgG4, V domains shown)
VH 1: QVQLVESGGGVVQPGRSLRVSCVVSGFTFSSFGMHWVRQAPDKGLEWVAVIWYDGSNDYYSDSVKGRFTISRDNSKNTLFLQMNRLRAEDTAVYYCARANNWNRFDAFDLWGQGTMVTVSS
VH 2: EVQLVESGGGLVQPGGSLRLSCAASGFIVTTNYMTWLRQAPGKGLEWVSLIYSSGHTYYADSVKGRFTISRHNSKNTLYLQMDSLRAEDTAVYYCASAFAADVFDIWGQGTMVTVSS
VL: not shown
notes: MET x MET bispecific, human IgG4; also called No. 42
Consider B2, for which the “FACS Binding (MFI Fold Above Isotype Control)” value with human MET on cells [7] was 263 fold above isotype control. In the assay with human MET on cells [8], the “FACS Binding (MFI Fold Above Isotype Control)” value is 477 fold above isotype control. Further, the “FACS Binding (MFI Fold Above Isotype Control)” value with human MET on cells [9] was 12 fold above isotype control. Also, the “Relative MET Level, SNU5 cells, 18 hrs” value with human MET on cells [10] was 0.27 relative to control (hFc). In the assay with human MET on cells [11], the “% Inhibition, HEK293/SRE-Luc Blocking Activity (HGF, 1 h mAb pre-bind)” value stood at 85%; the “EC50, Ligand (HGF)-Independent HEK293/SRE-Luc Activation” value amounted to 1.4 nM; the “Fold Response, Ligand (HGF)-Independent HEK293/SRE-Luc Activation” value worked out at 2.2 fold; the “IC50, HEK293/SRE-Luc Blocking Activity (HGF, 1 h mAb pre-bind)” value was 0.19 nM. The “FACS Binding (MFI Fold Above Isotype Control)” value in the assay with human MET on cells [12] is 183 fold above isotype control. Moreover, the “FACS Binding (MFI Fold Above Isotype Control)” value with human MET on cells [13] is 18 fold above isotype control. Besides, in the assay with human MET on cells [5], the “IC50, 6-day in vitro cytotoxicity, A549” value was above 100 nM; the “IC50, 6-day in vitro cytotoxicity, EBC-1” value was above 100 nM; the “IC50, 6-day in vitro cytotoxicity, Hs746t” value is above 100 nM; the “Max % Kill, 6-day in vitro cytotoxicity, A549” value amounted to 0%. Moreover, in the assay with human MET on cells [5], the “Max % Kill, 6-day in vitro cytotoxicity, EBC-1” value was found to be 11% and the “Max % Kill, 6-day in vitro cytotoxicity, Hs746t” value stood at 7%. For the same molecule, in the assay with human MET on cells [14], the “FACS Binding (MFI Fold Above Isotype Control)” value is 39 fold above isotype control. For the same molecule, the “FACS Binding (MFI Fold Above Isotype Control)” value with human MET on cells [15] was 11 fold above isotype control.

B3: H4H13312P2 (antibody, human IgG4, V domains shown)
VH: EVQLVESGGGLVQPGGSLRLSCAASGFIVTTNYMTWLRQAPGKGLEWVSLIYSSGHTYYADSVKGRFTISRHNSKNTLYLQMDSLRAEDTAVYYCASAFAADVFDIWGQGTMVTVSS
VL: not shown
notes: human IgG4 Fc (H4H), bivalent monospecific; also called parental antibody 2; M2
As a reminder, the Kd is a measure of binding affinity in units of concentration. Read a low Kd as a tighter complex. For the molecule B3, the Kd turned out to be 227 nM in assay [16] and 2.79 nM in [17]. The values for the T½ in assay [16], in [17] and in assay [20] were 0.7 min, 6.7 min and 1.4 min, respectively. Also, the “IC50 (read off the curve); blocking of HGF-dependent SRE-driven luciferase signal in HEK293T cells” value in assay [18] was around 0.4 nM. Also, the “EC50 (read off the curve); HGF-independent SRE-driven luciferase signal in HEK293T cells” value in assay [19] was around 0.5 nM.

The record behind these values is patent US20220040319A1 (Regeneron, published 2022).
